{
  "source": "patent US7067302B2",
  "about": "“DNA and amino acid sequence of a tyrosine ammonia lyase enzyme from the bacterium Rhodobacter sphaeroides” (E. I. du Pont de Nemours and Company, priority 2002, dated 2006)",
  "molecules": {"B1": {"name": "wild-type PAL/TAL enzyme from the yeast Rhodosporidium: wild-type PAL/TAL enzyme from the yeast Rhodosporidium (protein, UniProt P11544 1-716, looked up)", "Phenylalanine/tyrosine …": "MAPSLDSISHSFANGVASAKQAVNGASTNLAVAGSHLPTTQVTQVDIVEKMLAAPTDSTLELDGYSLNLGDVVSAARKGRPVRVKDSDEIRSKIDKSVEFLRSQLSMSVYGVTTGFGGSADTRTEDAISLQKALLEHQLCGVLPSSFDSFRLGRGLENSLPLEVVRGAMTIRVNSLTRGHSAVRLVVLEALTNFLNHGITPIVPLRGTISASGDLSPLSYIAAAISGHPDSKVHVVHEGKEKILYAREAMALFNLEPVVLGPKEGLGLVNGTAVSASMATLALHDAHMLSLLSQSLTAMTVEAMVGHAGSFHPFLHDVTRPHPTQIEVAGNIRKLLEGSRFAVHHEEEVKVKDDEGILRQDRYPLRTSPQWLGPLVSDLIHAHAVLTIEAGQSTTDNPLIDVENKTSHHGGNFQAAAVANTMEKTRLGLAQIGKLNFTQLTEMLNAGMNRGLPSCLAAEDPSLSYHCKGLDIAAAAYTSELGHLANPVTTHVQPAEMANQAVNSLALISARRTTESNDVLSLLLATHLYCVLQAIDLRAIEFEFKKQFGPAIVSLIDQHFGSAMTGSNLRDELVEKVNKTLAKRLEQTNSYDLVPRWHDAFSFAAGTVVEVLSSTSLSLAAVNAWKVAAAESAISLTRQVRETFWSAASTSSPALSYLSPRTQILYAFVREELGVKARRGDVFLGKQEVTIGSNVSKIYEAIKSGRINNVLLKMLA"}, "B2": {"name": "TAL enzyme from Trichosporon cutaneum: inducible TAL enzyme isolated from the yeast Trichosporon cutaneum (protein)", "chain": "MFIETNVAKPASTKAMNAGSAKAAPVEPFATYAHSQATKTVSIDGHTMKVGDVVAVARHGAKVELAASVAGPVRASVDFKESKKHTSIYGVTTGFGGSADTRTSDTEALQISLLEHQLCGFLPTDATYEGMLLAAMPIPIVRGAMAVRVNSCVRGHSGVRLEVLQSFADFINRGLVPCVPLRGTISASGDLSPLSYIAGAICGHPDVKVFDTAASPPTVLTSPEAIAKYGLKTVKLASKEGLGLVNGTAVSAAAGALALYDAECLAIMSQTNTVLTVEALDGHVGSFAPFIQEIRPHAGQIEAARNIRHMLGGSKLAVHEESELLADQDAGILRQDRYALRTSAQWIGPQLEALGLARQQIETELNSTTDNPLIDVEGGMFHHGGNFQAMAVTSAMDSARIVLQNLGKLSFAQVTELINCEMNHGLPSNLAGSEPSTNYHCKGLDIHCGAYCAELGFLANPMSNHVQSTEMHNQSVNSMAFASARRTMEANEVLSLLLGSQMYCATQALDLRVMEVKFKMAIVKLLNETLTKHFAAFLTPEQLAKLNTHAAITLYKRLNQTPSWDSAPRFEDAAKHLVGVIMDALMVNDDITDLTNLPKWKKEFAKEAGNLYRSILVATTADGRNDLEPAEYLGQTRAVYEAVRSELGVKVRRGDVAEGKSGKSIGSSVAKIVEAMRDGRLMGAVGKMF", "modifications": "T. cutaneum"}, "B3": {"name": "RsTAL: the TAL enzyme from Rhodobacter sphaeroides, 526 amino acids, SEQ ID NO:3 (protein)", "chain": "VKPMLAMSPPKPAVELDRHIDLDQAHAVASGGARIVLAPPARDRCRASEARLGAVIREARHVYGLTTGFGPLANRLISGENVRTLQANLVHHLASGVGPVLDWTTARAMVLARLVSIAQGASGASEGTIARLIDLLNSELAPAVPSRGTVGASGDLTPLAHMVLCLQGRGDFLDRDGTRLDGAEGLRRGRLQPLDLSHRDALALVNGTSAMTGIALVNAHACRHLGNWAVALTALLAECLRGRTEAWAAALSDLRPHPGQKDAAARLRARVDGSARVVRHVIAERRLDAGDIGTEPEAGQDAYSLRCAPQVLGAGFDTLAWHDRVLTIELNAVTDNPVFPPDGSVPALHGGNFMGQHVALTSDALATAVTVLAGLAERQIARLTDERLNRGLPPFLHRGPAGLNSGFMGAQVTATALLAEMRATGPASIHSISTNAANQDVVSLGTIAARLCREKIDRWAEILAILALCLAQAAELRCGSGLDGVSPAGKKLVQALREQFPPLETDRPLGQEIAALATHLLQQSPV", "modifications": "R. sphaeroides"}},
  "key": {"[1]": {"conditions": "literature values; cited from earlier work"}, "[2]": {"experiment": "Kinetic analysis of purified RsTAL with phenylalanine (Lineweaver-Burk)", "assay_type": "biochemical", "conditions": "substrate phenylalanine", "experimental": "(§1) A 500 mL culture of the E. coli BL21(DE3)RP(pKK233.RsTAL2) strain was grown in LB Broth, containing […] ampicillin to mid log phase, induced with 1 mM IPTG, and incubated overnight (18 h) in a 37° C. shaker. The cells were centrifuged and resuspended in 10 mL of Buffer A (50 mM Tris-HCl, pH 8.5 buffer, 5 mM DTT (dithiothreitol), and 1 mM tyrosine) containing one and a half EDTA-free protease inhibitor tablets (Roche Applied Science, Indianapolis, Ind.). The cells were then passed through a French Press Cell twice, and centrifuged at 18000 rpm for 20 min. Ammonium sulfate at 30% saturation was added to the […] supernatant and the resulting precipitate was removed by centrifugation. The supernatant from this first fractionation was then treated with ammonium sulfate at 50% saturation. […] The eluted fractions were analyzed for TAL activity, and the fractions containing TAL activity were pooled, precipitated again using ammonium sulfate at 50% saturation, and desalted using a 3 mL desalting column (Bio-Rad Laboratories, Hercules, Calif.). […] TAL activity was detected in the flow-through fractions. […]\nThe kinetic parameters of the RsTAL enzyme were characterized using'the TAL enzyme assay described above. The initial rates of the enzyme reaction were measured at tyrosine concentrations of 0.01 to 10 mM in 50 mM Tris-HCl, pH 8.5 buffer. […]"}, "[3]": {"experiment": "Kinetic analysis of purified RsTAL with tyrosine (Lineweaver-Burk)", "assay_type": "biochemical", "experimental": "Crude cell extracts were generated by sonication of a suspension of the transformed cells, followed by centrifugation. The TAL enzyme activity of the crude cell extracts was determined by an enzyme assay using 40 μg of crude cell extract in 10 mM Tris-HCl, pH 8.5 buffer containing 1 mM tyrosine. The OD of the pHCA produced was followed at 315 nm with an extinction coefficient of […]. The results of the TAL enzyme assay are given in Table 5 in terms of activity units. A unit (U) is defined as follows: one unit of activity deaminated 1 μmol of tyrosine to pHCA per min.\nas §1\nThe kinetic parameters of the RsTAL enzyme were characterized using'the TAL enzyme assay described above. The initial rates of the enzyme reaction were measured at tyrosine concentrations of 0.01 to 10 mM in 50 mM Tris-HCl, pH 8.5 buffer. The values of kcat and Km of the RsTAL enzyme for both tyrosine and phenylalanine were determined using Lineweaver-Burk analysis and the results are given in Table 6."}, "[4]": {"conditions": "substrate tyrosine, 50 mM Tris-HCl, pH 8.5"}},
  "data": [
    {"molecule": "B1", "values": [
      {"measurement": "TAL/PAL ratio (TAL catalytic activity to PAL catalytic activity)", "setting": "[1]", "result": 0.58}
    ]},
    {"molecule": "B2", "values": [
      {"measurement": "PAL/TAL activity ratio", "setting": "[1]", "result": 0.73}
    ]},
    {"molecule": "B3", "values": [
      {"measurement": "Km", "setting": "[2]", "result": 560, "unit": "µM"},
      {"measurement": "kcat", "setting": "[2]", "result": 0.01, "unit": "s⁻¹"},
      {"measurement": "Km", "setting": "[3]; [4]", "result": 60, "unit": "µM"},
      {"measurement": "kcat", "setting": "[3]; [4]", "result": 0.02, "unit": "s⁻¹"},
      {"measurement": "TAL/PAL Ratio", "setting": "[3]; tyrosine versus phenylalanine as substrate", "result": 19}
    ]}
  ]
}
